{
  "source": "paper PMC12802937",
  "about": "(Nucleic Acids Research, 2026)",
  "conditions_in_all_cases": "both partners purified",
  "key": {"[1]": {"target": "T1, Bre1-LR (Bre1 residues 227–700, LBD and RING domains), 6× histidine tag (budding yeast, UniProt Q07457 227-700)", "T1 construct": "two Bre1 polypeptides form the dimeric coiled-coils of the LBD in the crystal structure; also called WT; source: E. coli BL21 Rosetta (DE3), purified (Ni-NTA, heparin, gel filtration)", "T1 sequence (looked up)": "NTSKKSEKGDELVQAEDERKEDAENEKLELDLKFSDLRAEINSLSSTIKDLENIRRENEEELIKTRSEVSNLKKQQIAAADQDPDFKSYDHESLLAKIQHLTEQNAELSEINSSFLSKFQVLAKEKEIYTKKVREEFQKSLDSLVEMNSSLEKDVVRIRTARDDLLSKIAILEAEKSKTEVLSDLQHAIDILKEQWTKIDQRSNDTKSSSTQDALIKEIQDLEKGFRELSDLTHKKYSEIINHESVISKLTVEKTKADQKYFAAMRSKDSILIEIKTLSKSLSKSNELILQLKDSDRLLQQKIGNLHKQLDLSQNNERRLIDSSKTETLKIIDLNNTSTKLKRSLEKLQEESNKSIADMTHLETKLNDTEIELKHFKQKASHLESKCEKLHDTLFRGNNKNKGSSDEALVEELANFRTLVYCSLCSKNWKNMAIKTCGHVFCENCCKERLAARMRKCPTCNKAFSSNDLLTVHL", "test": "ITC; Lge1-CT (50–60 μM) injected into Bre1-LR (15 μM); 25°C, 20 mM TRIS (pH 7.5), 200 mM sodium chloride"}, "Bre1-LR K534E": {"target": "T2, Bre1-LR K534E (budding yeast, UniProt Q07457 227-700, K534E)", "T2 construct": "source: E. coli BL21 Rosetta (DE3), purified (Ni-NTA, heparin, gel filtration)", "T2 sequence (looked up)": "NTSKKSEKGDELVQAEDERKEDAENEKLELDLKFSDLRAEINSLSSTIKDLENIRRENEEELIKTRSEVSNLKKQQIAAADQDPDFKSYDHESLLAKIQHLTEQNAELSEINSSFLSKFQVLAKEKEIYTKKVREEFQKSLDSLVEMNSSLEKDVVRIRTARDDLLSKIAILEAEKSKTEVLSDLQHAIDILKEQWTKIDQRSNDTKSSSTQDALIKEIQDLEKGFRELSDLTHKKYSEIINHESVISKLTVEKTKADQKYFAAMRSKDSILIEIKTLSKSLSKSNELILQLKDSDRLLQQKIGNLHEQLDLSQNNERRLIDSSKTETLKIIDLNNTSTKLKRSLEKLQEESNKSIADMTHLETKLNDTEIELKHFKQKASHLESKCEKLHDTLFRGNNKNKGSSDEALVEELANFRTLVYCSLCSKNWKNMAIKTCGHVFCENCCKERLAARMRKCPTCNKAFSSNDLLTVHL", "test": "ITC; Lge1-CT (50–60 μM) injected into Bre1-LR (15 μM); 25°C, 20 mM TRIS (pH 7.5), 200 mM sodium chloride"}, "Bre1-LR E378K/E500K": {"target": "T3, Bre1-LR E378K/E500K (budding yeast, UniProt Q07457 227-700, E378K | E500K)", "T3 construct": "source: E. coli BL21 Rosetta (DE3), purified (Ni-NTA, heparin, gel filtration)", "T3 sequence (looked up)": "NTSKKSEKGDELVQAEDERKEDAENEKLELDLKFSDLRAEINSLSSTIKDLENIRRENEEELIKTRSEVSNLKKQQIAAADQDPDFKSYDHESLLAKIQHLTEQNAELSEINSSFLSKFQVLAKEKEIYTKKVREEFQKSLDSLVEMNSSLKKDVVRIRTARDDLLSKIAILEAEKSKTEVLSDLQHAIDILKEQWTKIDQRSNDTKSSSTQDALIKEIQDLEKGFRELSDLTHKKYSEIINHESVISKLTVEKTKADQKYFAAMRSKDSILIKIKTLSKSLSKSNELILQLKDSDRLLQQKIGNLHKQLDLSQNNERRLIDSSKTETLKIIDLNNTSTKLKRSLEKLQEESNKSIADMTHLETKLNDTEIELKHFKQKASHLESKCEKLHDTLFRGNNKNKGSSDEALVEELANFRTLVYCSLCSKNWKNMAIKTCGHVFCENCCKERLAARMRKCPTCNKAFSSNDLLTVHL", "test": "ITC; Lge1-CT (50–60 μM) injected into Bre1-LR (15 μM); 25°C, 20 mM TRIS (pH 7.5), 200 mM sodium chloride"}, "Bre1-LR K379E": {"target": "T4, Bre1-LR K379E (budding yeast, UniProt Q07457 227-700, K379E)", "T4 construct": "source: E. coli BL21 Rosetta (DE3), purified (Ni-NTA, heparin, gel filtration)", "T4 sequence (looked up)": "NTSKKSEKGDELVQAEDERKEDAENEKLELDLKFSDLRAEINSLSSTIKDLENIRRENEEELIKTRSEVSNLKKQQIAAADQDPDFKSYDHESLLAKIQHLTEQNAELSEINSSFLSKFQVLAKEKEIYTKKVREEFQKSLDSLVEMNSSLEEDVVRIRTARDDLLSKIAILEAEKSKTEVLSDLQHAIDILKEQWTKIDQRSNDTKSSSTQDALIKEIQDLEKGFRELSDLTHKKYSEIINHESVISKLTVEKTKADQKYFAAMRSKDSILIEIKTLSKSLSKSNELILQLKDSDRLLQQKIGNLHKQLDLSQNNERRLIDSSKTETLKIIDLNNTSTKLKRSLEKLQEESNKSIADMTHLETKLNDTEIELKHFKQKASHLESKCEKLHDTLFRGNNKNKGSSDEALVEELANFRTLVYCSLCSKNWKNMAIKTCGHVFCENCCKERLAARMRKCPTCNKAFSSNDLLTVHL", "test": "ITC; Lge1-CT (50–60 μM) injected into Bre1-LR (15 μM); 25°C, 20 mM TRIS (pH 7.5), 200 mM sodium chloride"}, "[2]": {"target": "T1, Bre1-LR (Bre1 residues 227–700, LBD and …)", "test": "ITC; Lge1-CT (50–60 μM) injected into Bre1-LR (15 μM); 25°C, 20 mM TRIS (pH 7.5), 300 mM sodium chloride"}},
  "data": [
    {"binder": "Lge1-CT (Lge1 residues 261–332), intein-chitin binding domain (CBD) tag construct (domain or fragment, budding yeast, UniProt Q02796 261-332, looked up, Lge1, budding yeast, residues 261-332; residues 268–331 resolved in the electron density; the intein-CBD tag is named on the protein in the pull-down; also called intein-CBD-fused Lge1-CT; intein-CBD-tagged Lge1-CT; source: E. coli BL21 Rosetta (DE3): cleared cell extract on chitin resin (pull-down); purified (chitin, heparin, gel filtration) for ITC and SPR; co-purified with Bre1-LR for the …) KNVKKTNNTESECEKAREVFKESDSIDSALEELNLKINSNELELRLLNNQCDKHALNIQLTQEKLDSLLLMQ", "values": [
      {"measurement": "Kd", "setting": "[1]", "result": "24.5 ± 4.5", "unit": "nM"},
      {"measurement": "dH", "setting": "[1]", "result": "-50.5 ± 1", "unit": "kcal/mol"},
      {"measurement": "stoichiometry N", "setting": "[1]", "result": "0.396 ± 0.003"},
      {"measurement": "Kd", "setting": "Bre1-LR K534E", "result": "36.9 ± 14.5", "unit": "nM"},
      {"measurement": "dH", "setting": "Bre1-LR K534E", "result": "-33.9 ± 2.1", "unit": "kcal/mol"},
      {"measurement": "stoichiometry N", "setting": "Bre1-LR K534E", "result": "0.469 ± 0.008"},
      {"measurement": "Kd", "setting": "Bre1-LR E378K/E500K", "result": "98 ± 31.2", "unit": "nM"},
      {"measurement": "dH", "setting": "Bre1-LR E378K/E500K", "result": "-40.7 ± 1.9", "unit": "kcal/mol"},
      {"measurement": "stoichiometry N", "setting": "Bre1-LR E378K/E500K", "result": "0.256 ± 0.007"},
      {"measurement": "Kd", "setting": "Bre1-LR K379E", "result": "58.1 ± 19", "unit": "nM"},
      {"measurement": "dH", "setting": "Bre1-LR K379E", "result": "-37.7 ± 1.6", "unit": "kcal/mol"},
      {"measurement": "stoichiometry N", "setting": "Bre1-LR K379E", "result": "0.428 ± 0.008"},
      {"measurement": "Kd", "setting": "[2]", "result": "2.7 ± 1.7", "unit": "nM"},
      {"measurement": "dH", "setting": "[2]", "result": "-38.8 ± 0.6", "unit": "kcal/mol"},
      {"measurement": "stoichiometry N", "setting": "[2]", "result": "0.318 ± 0.002"}
    ]}
  ]
}
